The target of data set [1] is T1, Human neutrophil elastase (Homo sapiens, UniProt P08246 P08246:30-267). Description: filter; 3'-truncated. The settings on record: tags: Athens Research and Technology. An excerpt:
(§1) With the use of PCR primers specific for the 3' sequence of the 2'-NH₂ modified RNA ligand, the 3'-fixed regions for four different ligands (class I ligand 12, class II ligand 14, class III ligand 9 and class IV ligand 19) were eliminated.

In data set [2] the target is Thrombin (UniProt P00734;P00734 P00734:328-363,P00734:364-622). Description: filter; specificity control.
In data set [3] the target is T1, Human neutrophil elastase. Description: filter; 6 mM KCl, 2 mM MgCl2, pH 7.0. To be noted: tags: Athens Research and Technology.
Data set [4] addresses T1, Human neutrophil elastase. Description: filter; no KCl in binding buffer. The settings on record: tags: Athens Research and Technology; G4 predicted.
For data set [5], the target named is Basic fibroblast growth factor (bFGF) (UniProt P09038 P09038:143-288). Description: filter; specificity control.
Data set [6] addresses T1, Human neutrophil elastase. As to the kind of experiment: competition; competes with ligand 24. To be noted: tags: Athens Research and Technology; G4 predicted.
Data set [7] concerns the target T1, Human neutrophil elastase. Description: filter; better at pH 5, Kd rises about 3-fold over two pH units; ligand 17 legend cites SEQ ID NO:1, sequence taken from Example 7. To be noted: tags: Athens Research and Technology; G4 predicted.
Data set [8] has as its target T1, Human neutrophil elastase. Description: filter; 3'-truncated; also FIG. 1. The settings on record: tags: Athens Research and Technology.
Source text: as §1

T1 sequence (P08246 30-267, one chain of several): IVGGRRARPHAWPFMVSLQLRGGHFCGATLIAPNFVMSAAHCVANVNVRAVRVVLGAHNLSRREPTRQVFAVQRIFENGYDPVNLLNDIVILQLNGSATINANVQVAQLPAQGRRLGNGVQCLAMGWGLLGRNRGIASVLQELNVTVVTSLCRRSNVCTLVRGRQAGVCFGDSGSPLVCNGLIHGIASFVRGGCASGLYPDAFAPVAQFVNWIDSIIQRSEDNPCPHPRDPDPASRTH
Chain of Basic fibroblast growth factor (bFGF) (P09038 143-288, one chain of several): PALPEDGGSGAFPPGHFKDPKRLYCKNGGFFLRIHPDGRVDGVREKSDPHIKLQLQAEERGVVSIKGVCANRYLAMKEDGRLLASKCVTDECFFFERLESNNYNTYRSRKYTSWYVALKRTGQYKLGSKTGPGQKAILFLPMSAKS

B1: ligand 19 3'-truncated (ssRNA)
RNA: GGGAGCUCAGAAUAAACGCUCAAUGCCCGGCAGUACUGCACGGCCUCGGGGGGGACCAGGGAG
modifications: 2'-NH2 all pyrimidines
As for B1, binding in data set [1] was characterised by a dissociation constant (Kd) of 648 nM.

B2: ligand 24 (class II) (ssRNA)
RNA: GGGAGCUCAGAAUAAACGCUCAAGGUAGACAUACGCCUUGGGGGGGUAUCAGGGUAUAUGGUAUUCGACAUGAGGCCCGGAUCCGGC
modifications: 2'-NH2 all pyrimidines
Regarding B2, the Kd is 600 nM in data set [2] and 11 nM in data set [3] (G4 predicted).

B3: ligand 14 (class II) (ssRNA)
RNA: GGGAGCUCAGAAUAAACGCUCAAGGCAGACAUACGCCUUGGGGGGGUUUCAGGGUAUAUGGCAUUCGACAUGAGGCCCGGAUCCGGC
modifications: 2'-NH2 all pyrimidines
As to B3, the Kd in data set [3] worked out at 17 nM.

B4: ligand 21 (class II; ligand 56 same SEQ ID) (ssRNA)
RNA: GGGAGCUCAGAAUAAACGCUCAAGGUAGACAUACGCCUUGGGGGGGUGUCAGGGUAUAUGGUAUUCGACAUGAGGCCCGGAUCCGGC
modifications: 2'-NH2 all pyrimidines
B4: the Kd in data set [4] is 192 nM; in data set [3] (G4 predicted) it was 39 nM.

B5: ligand 12 3'-truncated (ssRNA)
RNA: GGGAGCUCAGAAUAAACGCUCAAGAGUAGGCUUGACGCCUGGGGGGGUAUGGCUUCGACUGCG
modifications: 2'-NH2 all pyrimidines
In the case of B5, in data set [1], the dissociation constant (Kd) turned out to be 10 nM.

B6: ligand 44 (class I) (ssRNA)
RNA: GGGAGCUCAGAAUAAACGCUCAAGAGUAGGCUUGACGCUGGGGGGGUAUGGCUUCGACUUGCGUUCGACAUGAGGCCCGGAUCCGGC
modifications: 2'-NH2 all pyrimidines
In the case of B6, in data set [3], the Kd is 28 nM.

B7: ligand 9 (class III) (ssRNA)
RNA: GGGAGCUCAGAAUAAACGCUCAAGGAAUGAAUGUGAUGAACAGGUGUCGGGGUGGAUGGGUGGUUCGACAUGAGGCCCGGAUCCGGC
modifications: 2'-NH2 all pyrimidines
Turning to B7, the Kd in data set [5] was found to be 500 nM.

B8: ligand 28 (class IV) (ssRNA)
RNA: GGGAGCUCAGAAUAAACGCUCAAAUCGGAUAGCGCCGCGAUGGCGUCUGGGGGGGACCAGGGAUUCGACAUGAGGCCCGGAUCCGGC
modifications: 2'-NH2 all pyrimidines
Consider B8, for which binding in data set [3] was characterised by a dissociation constant (Kd) of 57 nM.

B9: ligand 9 3'-truncated (ssRNA)
RNA: GGGAGCUCAGAAUAAACGCUCAAGGAAUGAAUGUGAUGAACAGGUGUCGGGGUGGAUGGGUGG
modifications: 2'-NH2 all pyrimidines
In turn, B9 registered a Kd in data set [1] of 989 nM.

B10: ligand 22 (class V) (ssRNA)
RNA: GGGAGCUCAGAAUAAACGCUCAAGGCCCUCUGAACCGUCUGGGCGUGGUUAGUGGGUGGCUUCGACAUGAGGCCCGGAUCCGGC
modifications: 2'-NH2 all pyrimidines
On to B10, for which, in data set [3], binding was characterised by a dissociation constant (Kd) of 24 nM.

B11: ligand 30 (class I; ligand 12 same SEQ ID) (ssRNA)
RNA: GGGAGCUCAGAAUAAACGCUCAAGAGUAGGCUUGACGCCUGGGGGGGUAUGGCUUCGACUGCGUUCGACAUGAGGCCCGGAUCCGGC
modifications: 2'-NH2 all pyrimidines
As for B11, in data set [6], the binding result was “binds”.

B12: ligand 19 (class IV) (ssRNA)
RNA: GGGAGCUCAGAAUAAACGCUCAAUGCCCGGCAGUACUGCACGGCCUCGGGGGGGACCAGGGAGUUCGACAUGAGGCCCGGAUCCGGC
modifications: 2'-NH2 all pyrimidines
The molecule B12 came in with a dissociation constant (Kd) in data set [3] of 8 nM.

B13: ligand 26 (class III) (ssRNA)
RNA: GGGAGCUCAGAAUAAACGCUCAACGCCUUAGUCGCCAUAAUGCUGUCGGGGUGGAUAGGGUGGUUCGACAUGAGGCCCGGAUCCGGC
modifications: 2'-NH2 all pyrimidines
In the case of B13, the Kd in data set [3] turned out to be 38 nM.

B14: DNA-17 (ssDNA)
DNA: TAGCGATACTGCGTGGGTTGGGGCGGGTAGGGCCAGCAGTCTCGTGCGGTACTTGAGCA
As to B14, the binding result in data set [7] is “binds”.

B15: ligand 46 (class VI) (ssRNA)
RNA: GGGAGCUCAGAAUAAACGCUCAAUGGAUAGCGCUGCGUGACCGCGCUGGGGGGGUUGGCAGGGUUCGACAUGAGGCCCGGAUCCGGC
modifications: 2'-NH2 all pyrimidines
Regarding B15, the affinity in data set [3], expressed as Kd, was 13 nM.

B16: ligand 14 3'-truncated (ssRNA)
RNA: GGGAGCUCAGAAUAAACGCUCAAGGCAGACAUACGCCUUGGGGGGGUUUCAGGGUAUAUGGCA
modifications: 2'-NH2 all pyrimidines
Consider B16, for which, in data set [8], the Kd amounted to 14.5 nM.

B17: ligand 3 (class VI) (ssRNA)
RNA: GGGAGCUCAGAAUAAACGCUCAAUGAGGUUGAGUAGUCGUGGUAAUGGCCACGGCUGGGGGGGUCGGUUCGACAUGAGGCCCGGAUCCGGC
modifications: 2'-NH2 all pyrimidines
B17 registered a dissociation constant (Kd) in data set [3] of 28 nM.

B18: ligand 4 (class V) (ssRNA)
RNA: GGGAGCUCAGAAUAAACGCUCAACGGAUCGGGCGGUCGUCUAGCGGGAUGGCGUGCGGGUGGAUUCGACAUGAGGCCCGGAUCCGGC
modifications: 2'-NH2 all pyrimidines
For the molecule B18, binding in data set [3] was characterised by a dissociation constant (Kd) of 172 nM.

A word on the Kd: it is the equilibrium constant for the complex coming apart.

(Values after patent US5472841, “Methods for identifying nucleic acid ligands of human neutrophil elastase” (NeXstar Pharmaceuticals, Inc.).)
